Experimental findings from the RNAGym collection of RNA variant scans (doi:10.1093/nar/gkz1192) are described below.

The labels stand for the following.
B1: CPEB3 Ribozyme (parent)
chain: UAACAGGGGGCCACAGCAGAAGCGUUCACGUCGCAGCCCCUGUCAGAUUCUGGUGAAUCUGCGAAUUCUGCUGUAUAUCUC

The variants in this data set derive from B1. Nature of the data set: self-cleavage, relative activity (ratio to wild type); higher = more cleavage; in vitro, sequencing. A digest of the protocol:
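Libraries of CPEB3 self-cleaving ribozyme mutants came from rounds of error-prone PCR and carried barcodes, which DNA sequencing matched to variants. In vitro transcription used T7 RNA polymerase at 37°C for 5 hours, with a further 15 min in DNase I before EDTA stopped the reaction; the ribozymes cleaved during both steps. The RNA was reverse transcribed with template switching and sequenced on Illumina. Relative activity is the cleaved/total read fraction of a variant divided by that of the unmutated ribozyme, averaged over three batches with at least 5 reads.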
For UAACAGGGGGCCACAGCAGAAGCGUUCCCGUCGCAGCCCCUGUCGGAUUCUGGUGAAUCUGCGAAUUCUGCUGUAUAUCUC, the self-cleavage amounted to 0.39. In the case of UAACAGGGGGCCACAGCAGAAGCGUUUACGUCGCAGCCCCUGUCAGAUUCUGGUGAAUCUGCGAAUUCUGCAGUAUAUCUC it was 0.18. Take UAACAGGGGGCCACAGCAGAAGCGUUUACGUCGCAGCCCCUGUCAGAUUCUGGUGAAUCUGCGAAUUCUGCCGUAUAUCUC: the self-cleavage was found to be 0.24. In the case of UAACAGGGGGCCACAGCAGAAGCGUUCCCGUCGCAGCCCCUGUCAGAUUCUGGUGAAUCUGCGAAUUCUGCUGUAUAUUUC it was 0.63.

With UAACAGGGGGCCACAGCAGAAGCGUUCCCGUCGCAGCCCCUGUCAGAUUCUGGUGAACCUGCGAAUUCUGCUGUAUAUCUC, the self-cleavage turned out to be 0.27. In the case of UAACAGGGGGCCACAGCAGAAGCGUUCCCGUCGCAGCCCCUGUCAGAUUCUGGUGAAGCUGCGAAUUCUGCUGUAUAUCUC it was 0.2; in that of UAACAGGGGGCCACAGCAGAAGCGUUCCCGUCGCAGCCCCUGCCAGAUUCUGGUGAAUCUGCGAAUUCUGCUGUAUAUCUC, 0.4. Consider UAACAGGGGGCCACAGCAGAAGCGUUCCCGUCGCAGCCCCUGACAGAUUCUGGUGAAUCUGCGAAUUCUGCUGUAUAUCUC, for which the self-cleavage was determined as 0.59.

As to UAACAGGGGGCCACAGCAGAAGCGUUCCCGUCGCAGCCCCUGUCAGAUUCUGGUUAAUCUGCGAAUUCUGCUGUAUAUCUC, the self-cleavage turned out to be 0.21.

Consider UAACAGGGGGCCACAGCAGAAGCGUUCCCGUCGCAGCCCCUGUCAGAUUCUGGUGAAUCUGCGAAUUCUGCUGUAUAUCUC, for which the self-cleavage came out at 0.56.

On to UAACAGGGGGCCACAGCAGAAGCGUUCCCGUCGCAGCCCCUGUCAGAUUCUGGCGAAUCUGCGAAUUCUGCUGUAUAUCUC, for which the self-cleavage worked out at 0.53. In the case of UAACAGGGGGCCACAGCAGAAGCGUUCCCGUCGCAGCCCCUGUCAGAUUCUGGGGAAUCUGCGAAUUCUGCUGUAUAUCUC it was 0.36. In the case of UAACAGGGGGCCACAGCAGAAGCGUUCCCGUCGCAGCCCCUGUCAGAUUCUGGUGAAUCUGCGAGUUCUGCUGUAUAUCUC it was 0.24; in that of UAACAGGGGGCCACAGCAGAAGCGUUCCCGUCGCAGCCCCUGUCAGAUUCUGGUGAAUCUGCGAUUUCUGCUGUAUAUCUC, 0.3; in that of UAACAGGGGGCCACAGCAGAAGCGUUCCCGUCGCAGCCCCUGUCAGAAUCUGGUGAAUCUGCGAAUUCUGCUGUAUAUCUC, 0.37. In the case of UAACAGGGGGCCACAGCAGAAGCGUUCCCGUCGCAGCCCCUGUCAGACUCUGGUGAAUCUGCGAAUUCUGCUGUAUAUCUC it was 0.46.

Take UAACAGGGGGCCACAGCAGAAGCGUUCCCGUCGCAGCCCCUGUCAGAUUCUGGUGAAUCUGCGGAUUCUGCUGUAUAUCUC: the self-cleavage came out at 0.52.

Consider UAACAGGGGGCCACAGCAGAAGCGUUUACGUCGCAGCCCCUGUCAGAUUCUGGUGAAUCUGCGAAUUCUGCUGUACAUCUC, for which the self-cleavage was 0.19. In the case of UAACAGGGGGCCACAGCAGAAGCGUUUACGUCGCAGCCCCUGUCAGAUUCUGGUGAAUCUGCGAAUUCUGCUGUAAAUCUC it was 0.28; in that of UAACAGGGGGCCACAGCAGAAGCGUUCCCGUCGCAGCCCCUGUCAGAUUCUGGUGAAUCUGCGAAUUCUGCUUUAUAUCUC, 0.55; in that of UAACAGGGGGCCACAGCAGAAGCGUUCCCGUCGCAGCCCCUGUCAGAUUCUGGUGUAUCUGCGAAUUCUGCUGUAUAUCUC, 0.23.

Turning to UAACAGGGGGCCACAGCAGAAGCGUUCCCGUCGCAGCCCCUGUCAGAUUCUGGUGGAUCUGCGAAUUCUGCUGUAUAUCUC, the self-cleavage is 0.3. In the case of UAACAGGGGGCCACAGCAGAAGCGUUCCCGUCGCAGCCCCUGUCAGAUUCUGGUGAAUCUGCGAAUUCUGCUGUAUAUCUU it was 0.67. In the case of UAACAGGGGGCCACAGCAGAAGCGUUUACGUCGCAGCCCCUGUCAGAUUCUGGUGAAUCUGCGAAUCCUGCUGUAUAUCUC it was 0.16; in that of UAACAGGGGGCCACAGCAGAAGCGUUCCCGUCGCAGCCCCUGUCAGAUUCUGGUGAAUCUGUGAAUUCUGCUGUAUAUCUC, 0.06; in that of UAACAGGGGGCCACAGCAGAAGCGUUCCCGUCGCAGCCCCUGUCAGAUUCUGGUGAAUCUGCUAAUUCUGCUGUAUAUCUC, 0.41.

Regarding UAACAGGGGGCCACAGCAGAAGCGUUCCCGUCGCAGCCCCUGUCAGAUUCUGGUGAAUCAGCGAAUUCUGCUGUAUAUCUC, the self-cleavage stood at 0.4. In the case of UAACAGGGGGCCACAGCAGAAGCGUUUACGUCGCAGCCCCUGUCAGAUUCUGGUGAAUCUGCGAAUUCUGCUGUAUAACUC it was 0.16; in that of UAACAGGGGGCCACAGCAGAAGCGUUUACGUCGCAGCCCCUGUCAGAUUCUGGUGAAUCUGCGAAUUCUGCUGUAUAGCUC, 0.38; in that of UAACAGGGGGCCACAGCAGAAGCGUUUACGUCGCAGCCCCUGUCAGAUUCUGGUGAAUCUGCGAAUUCUGCUGUAUACCUC, 0.44. In the case of UAACAGGGGGCCACAGCAGAAGCGUUUACGUCGCAGCCCCUGUCAGAUUCUGGUGAAUCUGCGAACUCUGCUGUAUAUCUC it was 0.15; in that of UAACAGGGGGCCACAGCAGAAGCGUUCCCGUCGCAGCCCCCGUCAGAUUCUGGUGAAUCUGCGAAUUCUGCUGUAUAUCUC, 0.28; in that of UAACAGGGGGCCACAGCAGAAGCGUUCCCGUCGCAGCCCCAGUCAGAUUCUGGUGAAUCUGCGAAUUCUGCUGUAUAUCUC, 0.2. On to UAACAGGGGGCCACAGCAGAAGCGUUCCCGUCGCUGCCCCUGUCAGAUUCUGGUGAAUCUGCGAAUUCUGCUGUAUAUCUC, for which the self-cleavage is 0.27.
